From the nanobody polyreactivity screen of Harvey et al. (2022)

Assay: yeast display, Sf9 membrane polyspecificity reagent, FACS + sequencing; frameworks hold sequencing errors
Summary of the method: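 A nanobody's polyreactivity label depends on the gate it was sorted from. Yeast display cells were stained with 10% biotinylated, detergent-solubilized Sf9 membrane reagent for 1 hour at 4 °C, enriched on streptavidin microbeads and sorted by FACS. The low and high (top ~1%) gates were set on anti-HA fluorescence for expression and streptavidin fluorescence for reagent binding.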

| Sequence | polyreactivity (PSR sort gate) |
| --- | --- |
| QVQIVESGGGLVQAGGSLRLSCAASGFIIGKYTMGWYRQAPGKEREFVAAIRRSGASTYYADSVKGRFTISRDNAKNTVYLQMNSLKPEDTAVYYCSQAGYSPVYGYWGQGTQVTVSS | high polyreactivity |
| QVQIVESGGGLVQAGGSLRLSCAASGIIFDGYAMGWYRQAPGKERELVAGITIGDITYYADSVKGRFTISRDNAKITVYLQMNSLKPEDTAVYYCAADSYYYQTAYDYWGQGTQVTVSS | low polyreactivity |
| QVQIVESGGGLVQAGGSLRLSCAASGLTFYQNAMGWYRQAPGKERELVAAITRSGGSTYYADSVKGRFTISRDNAKNTVYLQMNSLKPEDTAVYYCAARGGLSRRYEYWGQGTQVTVSS | high polyreactivity |
| QVQIVESGGGLVQAGGSLRLSCAASGRIFAGYAIGWYRQAPGKERELVAAISSGGSTYYADSVKGRFTISRDNAKNTVYLQMNSLKPEDTAVYYCSAVGRRVYGTKFYYWGQGTQVTFSS | high polyreactivity |
| QVQIVESGGGLVQAGGSLRLSCAASGRIFDYYTMGWYRQAPGKERELVASISDGGRTNYADSVKGRFTISRDNAKNTVYLQMNSLKPEDTAVYYCAADFAPVAFDYWGQGTQVTVSS | low polyreactivity |
| QVQIVESGGGLVQAGGSLRLSCAASGRIFFVNTKGWYRQAPGKERELVATISWSGGSTYYADSVKGRFTISRDNAKNTVYLQMNSLKPEDTAVYYCNRSLTGYDELGYPVPYTYDYWGQGTQVTVSS | low polyreactivity |
| QVQIVESGGGLVQAGGSLRLSCAASGRIFLPYAMGWYRQAPGKERELVAAITQSGVITSYADSVKGRFTISRDNAKNTVYLQMNSLKPEDTAVYYCATVRTVIVFRFPYSYGYWGQGTQVTVSS | high polyreactivity |
| QVQIVESGGGLVQAGGSLRLSCAASGRIRSYAMGWYRQAPGKERELVAAISSRGGSTYYADSVKGRFTISRDNAKNTVYLLMNSLKPEDTAVYYCAKGGYCGQGTQVTVSS | high polyreactivity |
| QVQIVESGGGLVQAGGSLRLSCAASGRTFGVYAMGWYRQAPAKESTYYADSVKGRFTISRDNAKNTVYLQMNSLKPEDTAVYYCNARGGFGYITMDYWGQGTQVTVSS | low polyreactivity |
| QVQIVESGGGLVQAGGSLRLSCAASGRTFWSYAMVWYRPAPGKEWELVATIKDSDGSTYADSVKGRFKISRDNAKNTVYLQMNSLKPEDTAVYYWIAKTRAGYYFGYGYWGQVTQVTVSS | low polyreactivity |
| QVQIVESGGGLVQAGGSLRLSCAASGRTLDVYAMGWDRQAPGKERELVARITSGGSTNYADSVKGRFTISRDNAKNTVYLQMNSLKPEDTAVYYCNAVVYPRPYTRPRYRYDYWGQGTQVTVSS | high polyreactivity |
| QVQIVESGGGLVQAGGSLRLSCAASGRTVKFYAMGWYRQAPGKERELVARITSNSGSTYYADSVKGRFTISRDNAKNTVYLQMNSLKPEDTAVYYCAARGRYRQFNYWGQGTQVTVSS | high polyreactivity |
| QVQIVESGGGLVQAGGSLRLSCAASGRTVVYNSMGWYRQAPGKERELVAAITRSGDSSYYADSVKGRFSISRDNAKNPVYLQMNSLKPEDTAVYYCNAVSKRYWLMDYWGQGTQVTVSS | high polyreactivity |
| QVQIVESGGGLVQAGGSLRLSCAASGSIFFAYAMGSYRQAPGKERELVAAITGSGGSTYADSVKGRFTISRDNAKNTVYVQMNSLKPEDTAVYYCAKDHYYYPYKRLFVGHEYWGQGTQVTVSS | low polyreactivity |
| QVQIVESGGGLVQAGGSLRLSCAASGSIFPINAMGWYRQAPGKERELVAVITSGGGGTYYADCVKGRYTISRDNAKNTVYLQMNSLKPEDPAGYYCAKRLSRKWQKFGYWGQGTQVTVSS | low polyreactivity |
| QVQIVESGGGLVQAGGSLRLSCAASGSIFRGYAKGWYRQAPGKERELVAAITQRAGSTYYADSVKGRFTISRDNAKNTVYLQMNSLKPEDTAVYYCAADVFYVFLHRVWYNYWGQGTQVTVSS | low polyreactivity |
| QVQIVESGGGLVQAGGSLRLSCAASGSIFRSYAMGWYRQAPGKERELVAAITSSSGSTYYADSVKGRFTISRDNAKNTVYLQMNSLKPEDTAVYSCAAGSPRRYRYDYWGQGTQVTVSS | high polyreactivity |
| QVQIVESGGGLVQAGGSLRLSCAASGSIFRYNAMGWYRQARGKERELVAAITSGDSTYYADSVKGRFTISRDNAKNTVYLQMNSLKPEDTAVYYCAVTTWANTQWEEYWGHGTQVTVSS | low polyreactivity |
| QVQIVESGGGLVQAGGSLRLSCAASGSISVANAMGWYRQAPGKERELVAAITDSGDDTYYADSVKGRFTISRDNAKNTVYFQMNSLKPEDTELYYCAVEAWSVPPYDYWGQGTQVTVSS | low polyreactivity |
| QVQIVESGGGLVQAGGSLRLSCAASGSSFTLYALGWYRQAPGKERELVAAISWSTTSTYYADSVKGRFTISRDNAKNTVYLQMNSLKPEDTAVYYCNARHWPLAYEYWGQGTQVTVSS | high polyreactivity |
| QVQIVESGGGLVQAGGSLRLSCAASGSTFAYYTMGWYRQAPGKDRELVAAISASGGSTYYADSVKGRFTISRDNGKNTVYLQMNCLKPEVSEVYYCNAESYLTGWWVDYWGQGSQVTVSS | low polyreactivity |
| QVQIVESGGGLVQAGGSLRLSCAASGSTFGGYVMGWYRQAPGKERELVAAIRWRTDSTYYADSVKGRFTISRDNAKNTVYLQMNSLKPEDTAVYYCAAPRGTRVGSHLYYWGQGTQVTVSS | high polyreactivity |
| QVQIVESGGGLVQAGGSLRLSCAASGSTFPTYAMGRYRQAPGKERELVAAITSGSGTNTYYADSVKGRFTISRDNAKNTVYLQMNSLKPEDTAVYYCAKSFRKKYGWGQGTQVTVSS | high polyreactivity |
| QVQIVESGGGLVQAGGSLRLSCAASGSTFPYNAMVWYRKEPGKERELVAVITTVGSTYYADSVKGRFTISRDNAKNTVYLQMNSLKPEDTAVYYCAAANTQSPGYDYWGQGTQVTVSS | low polyreactivity |
| QVQIVESGGGLVQAGGSLRLSCAASGSTFTRYAMGWYRQAPGKERELVAAISRTGGSRTYYADSVNGRFTISRDNAKNTVYLQMNCLKPEDTAVYYCAKGYWRYLGFLYFFPARDYWGQGTQVTVSS | high polyreactivity |
| QVQIVESGGGLVQAGGSLRLSCAASGSTFYGYAMGWYRQAPGKERELVAVINYRGDRTYFADSVKGRFTISRDNAKNTVYLQMNSLKPEDTAVYYCAARYRVYYLAGYEYWGQGTQVTVSS | high polyreactivity |
| QVQIVESGGGLVQAGGSLRLSCAASGSTINYNAMGWYRQAPGKERELVAAISTNGGSTYYADSVKGRFTISRDNAKNTVYLQMNSLKPEDTAVYYCNKVRKYSRHYDYWGQGTQVTVSS | high polyreactivity |
| QVQIVESGGGLVQAGGSLRLSCAASGYPFCRNAMGCYRQAPGKERELVAAISRSAGSTNYADSVKGRFTISRDNAMYTVYFQMNSLKPEDTAVYYGAADRYYRDPYWGNYWGQGTQVTVSS | high polyreactivity |
| QVQIVESGGGLVQAGGSLRLSCAASVIIFSKYGMGWYRQAPGKERELVAAISSSGGTTYYADSVKGRFTISRDNAKNTVYLQMNSLKPEDTAVYYCAATGRRRTYSEYEYWGQGTQVTVSS | high polyreactivity |
| QVQIVESGGGLVQAGGSLRLSCAAYGRIFVPYAMGWYRPAPGKERELVAAITWRGGSTYYAYSVKGRFTISRDNAKNTVYLQMNSMNPDDTGVYYCNSDEASAGFWFSHLQLGMDYWGQGTQVTVSS | low polyreactivity |
